PMC3154279, “ADP-Ribosylation Factor 6 Mediates E-Cadherin Recovery by Chemical Chaperones” (PLoS ONE, 2011)

Tests used:
Assay in all cases: proximity ligation; Duolink PLA on methanol-fixed CHO cells stably expressing WT or mutant hE-cadherin, treated with medium or 2% DMSO for 24 h; antibody pairs against E-cadherin and PIP5K1C, p120 or β-catenin; spots per cell counted (BlobFinder), relative number of blobs per cell, n = 3
[1] = target: T1, β-catenin (Chinese hamster (endogenous in CHO), UniProt G3H996 1-781); settings: partners not purified
T1 construct: β-catenin, endogenous in CHO (Chinese hamster ovary) cells, detected with an anti-β-catenin antibody; source: endogenous, CHO cells, fixed
T1 sequence (looked up): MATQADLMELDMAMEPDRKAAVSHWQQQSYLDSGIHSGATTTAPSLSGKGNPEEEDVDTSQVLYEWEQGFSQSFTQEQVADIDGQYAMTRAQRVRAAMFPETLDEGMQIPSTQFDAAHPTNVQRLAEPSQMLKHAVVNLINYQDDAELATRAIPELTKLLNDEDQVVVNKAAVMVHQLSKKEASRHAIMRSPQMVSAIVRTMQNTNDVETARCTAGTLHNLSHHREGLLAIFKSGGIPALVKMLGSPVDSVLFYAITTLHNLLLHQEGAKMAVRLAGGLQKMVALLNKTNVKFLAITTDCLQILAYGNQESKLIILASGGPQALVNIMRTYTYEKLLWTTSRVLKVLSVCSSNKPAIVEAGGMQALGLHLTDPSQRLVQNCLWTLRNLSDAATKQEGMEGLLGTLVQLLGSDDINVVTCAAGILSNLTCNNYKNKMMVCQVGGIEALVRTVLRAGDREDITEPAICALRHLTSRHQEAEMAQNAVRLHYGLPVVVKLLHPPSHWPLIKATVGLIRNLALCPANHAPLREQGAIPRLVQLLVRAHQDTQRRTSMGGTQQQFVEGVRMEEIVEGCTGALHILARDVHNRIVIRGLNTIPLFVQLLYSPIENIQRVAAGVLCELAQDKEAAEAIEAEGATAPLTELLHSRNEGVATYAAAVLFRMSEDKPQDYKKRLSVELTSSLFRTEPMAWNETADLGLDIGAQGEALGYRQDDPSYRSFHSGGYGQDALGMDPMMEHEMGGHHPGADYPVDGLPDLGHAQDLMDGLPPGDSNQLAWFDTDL

[2] = target: p120-catenin (Chinese hamster (endogenous in CHO))
[3] = target: Type Iγ phosphatidylinositol phosphate kinase (PIPKIγ) (Chinese hamster (endogenous in CHO))

fold increase of PLA blobs per cell with 2% DMSO against untreated WT [1]: 1.8 fold
fold increase of PLA blobs per cell with 2% DMSO against untreated WT [2]: 4.2 fold
fold increase of PLA blobs per cell with 2% DMSO against untreated WT [3]: 2.3 fold
B1: WT human E-cadherin (natural protein, UniProt P12830 155-882, looked up)
chain: DWVIPPISCPENEKGPFPKNLVQIKSNKDKEGKVFYSITGQGADTPPVGVFIIERETGWLKVTEPLDRERIATYTLFSHAVSSNGNAVEDPMEILITVTDQNDNKPEFTQEVFKGSVMEGALPGTSVMEVTATDADDDVNTYNAAIAYTILSQDPELPDKNMFTINRNTGVISVVTTGLDRESFPTYTLVVQAADLQGEGLSTTATAVITVTDTNDNPPIFNPTTYKGQVPENEANVVITTLKVTDADAPNTPAWEAVYTILNDDGGQFVVTTNPVNNDGILKTAKGLDFEAKQQYILHVAVTNVVPFEVSLTTSTATVTVDVLDVNEAPIFVPPEKRVEVSEDFGVGQEITSYTAQEPDTFMEQKITYRIWRDTANWLEINPDTGAISTRAELDREDFEHVKNSTYTALIIATDNGSPVATGTGTLLLILSDVNDNAPIPEPRTIFFCERNPKPQVINIIDADLPPNTSPFTAELTHGASANWTIQYNDPTQESIILKPKMALEVGDYKINLKLMDNQNKDQVTTLEVSVCDCEGAAGVCRKAQPVEAGLQIPAILGILGGILALLILILLLLLFLRRRAVVKEPLLPPEDDTRDNVYYYDEEGGGEEDQDFDLSQLHRGLDARPEVTRNDVAPTLMSVPRYLPRPANPDEIGNFIDENLKAADTDPTAPPYDSLLVFDYEGSGSEAASLSSLNSSESDKDQDYDYLNEWGNRFKKLADMYGGGEDD
notes: E-cadherin, human, wild type, expressed from a transduced vector in CHO cells; also called WT hE-cad; WT hEcadherin; source: CHO cells (ATCC CCL-61), stably transduced, in fixed cells
